Measured values from patent publication US20040234519A1.

Assays:
[1] = molecular target: T1, PTN secreted by SW13/PTN cells (SW13 human adrenal carcinoma cells stably transfected with PTN cDNA) (human) (UniProt P21246); experiment: cell-based or functional assay
T1 sequence: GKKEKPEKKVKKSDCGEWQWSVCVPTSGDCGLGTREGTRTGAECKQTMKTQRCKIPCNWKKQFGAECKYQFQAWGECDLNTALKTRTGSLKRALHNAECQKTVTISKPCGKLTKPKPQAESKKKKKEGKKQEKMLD

[2] = molecular target: T2, recombinant human PTN (R & D Systems, cat# 252-PL) (human) (UniProt P21246); experiment: ELISA, plate coated with rhPTN, hybridoma antibody, read at 450 nm
T2 sequence: T1 sequence

[3] = molecular target: T1, PTN secreted by SW13/PTN cells (SW13 human adrenal carcinoma cells stably transfected with PTN cDNA) (human); experiment: ELISA, PTN captured from SW13/PTN supernatant by goat anti-human PTN polyclonal, read at 450 nm

Proliferation NIH 3T3 (inhibition) [1]: 50 % inhibition
Proliferation U87 MG (inhibition) [1]: 50 % inhibition
Proliferation WI38 (inhibition) [1]: 25 % inhibition
Soft Agar (inhibition) [1]: 100 % inhibition
inhibition of SW13 colony formation in soft agar, antibody at 10 ug/ml [1]: < 95%
ELISA OD [2]: 0.597 OD
ELISA OD [3]: 0.139 OD
B1: monoclonal antibody produced by the hybridoma cell line 3B10 (antibody, V domains shown)
VH: QVQLQQSGPELVKPGASVKISCQASGYAFSSHWMNWVKQRPGKGLEWIGRIYPGDGDSLYNGKFKGKATLTADKSSTTVYMQLSSLTSEDSAVYFCARTRAYGPAWFAYWGQGTLVTVSA
VL: DIVMTQSPSSLAMSVGQKVTLSCRSSQSLLDSNNQKNYLAWYQQKPGQSPKLLVYFASIRESGVPDRFIGSGSGTDFTLTITSVQAEDLADYFCQQHYSTPLTFGAGTKLELK
modifications: N-terminus of the heavy chain blocked, most likely modified NH2-terminal glutamine
